Measured values taken from article PMC7862291, “Full-length in meso structure and mechanism of rat kynurenine 3-monooxygenase inhibition” (Communications Biology, 2021).

Target: the molecule itself
Assay: crystal structure; in meso (lipidic cubic phase, 9:1 monoolein:cholesterol); Rat-KMO with compound 3 (and NADPH) or compound 4; 3.0 Å

B1: full-length Rattus norvegicus kynurenine 3-monooxygenase (Rat-KMO), crystallisation construct (enzyme, Rattus norvegicus (rat), UniProt O88867 1-478, looked up)
chain: MASSDTEGKRVVVIGGGLVGALNACFLAKRNFQVDVYEAREDIRVANFMRGRSINLALSYRGRQALKAVGLEDQIVSKGVPMKARMIHSLSGKKSAIPYGNKSQYILSISREKLNKDLLTAVESYPNAKVHFGHKLSKCCPEEGILTMLGPNKVPRDITCDLIVGCDGAYSTVRAHLMKKPRFDYSQQYIPHGYMELTIPPKNGEYAMEPNCLHIWPRNAFMMIALPNMDKSFTCTLFMSFEEFEKLPTHSDVLDFFQKNFPDAIPLMGEQALMRDFFLLPAQPMISVKCSPFHLKSRCVLMGDAAHAIVPFFGQGMNAGFEDCLVFDELMDKFNNDLSVCLPEFSRFRIPDDHAISDLSMYNYIEMRAHVNSRWFLFQRLLDKFLHALMPSTFIPLYTMVAFTRIRYHEAVLRWHWQKKVINRGLFVLGSLVAIGSAYILVHHLSPRPLELLRSAWTGTSGHWNRSADISPRVPWSH
notes: thrombin site between GST and the N-terminus, TEV site before the C-terminal FLAG tag; C-terminus disordered from H443 in the structure; crystallised in meso with compound 3 or compound 4; No TEV cleavage is described; Treated with N-Glycosidase F; also called full-length KMO (1-478); not shown: GST, N-terminal, cleaved
stoichiometry N: 2
